According to the supplement of paper PMC11246515:
± gives the standard deviation of the averaged measurements.

Experiment: total protein half-life in vivo (active degradation + dilution); higher = more stable protein
[1] = E. coli NCM3722 delta-hslV, growth: N-lim chemostat, doubling time 6 h
[2] = E. coli NCM3722 delta-lon, growth: N-lim chemostat, doubling time 6 h
[3] = E. coli NCM3722 delta-smpB, growth: N-lim chemostat, doubling time 6 h
[4] = wild type E. coli NCM3722, growth: C-lim chemostat, doubling time 3 h
[5] = wild type E. coli NCM3722, growth: C-lim chemostat, doubling time 6 h
[6] = wild type E. coli NCM3722, growth: C-lim chemostat, doubling time 12 h
[7] = wild type E. coli NCM3722, growth: N-lim chemostat, doubling time 6 h
[8] = wild type E. coli NCM3722, growth: N-lim chemostat, doubling time 12 h
[9] = wild type E. coli NCM3722, growth: P-lim chemostat, doubling time 6 h
[10] = wild type E. coli NCM3722, growth: P-lim chemostat, doubling time 12 h
[11] = E. coli NCM3722 delta-clpP delta-lon delta-hslV, growth: N-lim chemostat, doubling time 6 h
[12] = E. coli NCM3722 delta-clpP, growth: N-lim chemostat, doubling time 6 h

## MRSAQVYRWQIPMDAGVVLRDRRLKTRDGLYVCLREGEREGWGEISPLPGFSQETWEEAQSVLLAWVNNWLAGDCELPQMPSVAFGVSCALAELTDTLPQAANYRAAPLCNGDPDDLILKLADMPGEKVAKVKVGLYEAVRDGMVVNLLLEAIPDLHLRLDANRAWTPLKGQQFAKYVNPDYRDRIAFLEEPCKTRDDSRAFARETGIAIAWDESLREPDFAFVAEEGVRAVVIKPTLTGSLEKVREQVQAAHALGLTAVISSSIESSLGLTQLARIAAWLTPDTIPGLDTLDLMQAQQVRRWPGSTLPVVEVDALERLL
[1]
  total protein half-life in vivo: 3.779 ± 0.0063 h
[2]
  total protein half-life in vivo: 4.33 ± 0.7 h
[3]
  total protein half-life in vivo: 3.7 ± 0.25 h
[4]
  total protein half-life in vivo: 3.25 ± 0.19 h
[5]
  total protein half-life in vivo: 5.71 ± 0.44 h
[6]
  total protein half-life in vivo: 13.2 h
[7]
  total protein half-life in vivo: 3.88 ± 0.14 h
[8]
  total protein half-life in vivo: 6.68 ± 0.4 h
[9]
  total protein half-life in vivo: 5.7 ± 0.073 h
[10]
  total protein half-life in vivo: 11.5 ± 0.8 h

## MKNWKTSAESILTTGPVVPVIVVKKLEHAVPMAKALVAGGVRVLEVTLRTECAVDAIRAIAKEVPEAIVGAGTVLNPQQLAEVTEAGAQFAISPGLTEPLLKAATEGTIPLIPGISTVSELMLGMDYGLKEFKFFPAEANGGVKALQAIAGPFSQVRFCPTGGISPANYRDYLALKSVLCIGGSWLVPADALEAGDYDRITKLAREAVEGAKL [P0A955]
[11]
  total protein half-life in vivo: 4.94 ± 0.33 h
[12]
  total protein half-life in vivo: 4.33 ± 0.52 h
[1]
  total protein half-life in vivo: 4.66 ± 0.37 h
[2]
  total protein half-life in vivo: 4.92 ± 0.53 h
[3]
  total protein half-life in vivo: 4.3 ± 0.16 h
[4]
  total protein half-life in vivo: 2.99 ± 0.52 h
[5]
  total protein half-life in vivo: 6.17 ± 0.77 h
[6]
  total protein half-life in vivo: 9.18 ± 0.99 h
[7]
  total protein half-life in vivo: 4.63 ± 0.16 h
[8]
  total protein half-life in vivo: 7.2 ± 0.82 h
[9]
  total protein half-life in vivo: 5.39 ± 0.082 h
[10]
  total protein half-life in vivo: 12.2 ± 0.37 h

## MSIKQMPGRVLISLLLSVTGLLSGCASHNENASLLAKKQAQNISQNLPIKSAGYTLVLAQSSGTTVKMTIISEAGTQTTQTPDAFLTSYQRQMCADPTVKLMITEGINYSITINDTRTGNQYQRKLDRTTCGIVKA
[7]
  total protein half-life in vivo: > 8 h
[9]
  total protein half-life in vivo: 3.91 ± 0.68 h
[10]
  total protein half-life in vivo: 7.3 ± 0.4 h

## MIEKLRNIAIIAHVDHGKTTLVDKLLQQSGTFDSRAETQERVMDSNDLEKERGITILAKNTAIKWNDYRINIVDTPGHADFGGEVERVMSMVDSVLLVVDAFDGPMPQTRFVTKKAFAYGLKPIVVINKVDRPGARPDWVVDQVFDLFVNLDATDEQLDFPIVYASALNGIAGLDHEDMAEDMTPLYQAIVDHVPAPDVDLDGPFQMQISQLDYNSYVGVIGIGRIKRGKVKPNQQVTIIDSEGKTRNAKVGKVLGHLGLERIETDLAEAGDIVAITGLGELNISDTVCDTQNVEALPALSVDEPTVSMFFCVNTSPFCGKEGKFVTSRQILDRLNKELVHNVALRVEETEDADAFRVSGRGELHLSVLIENMRREGFELAVSRPKVIFREIDGRKQEPYENVTLDVEEQHQGSVMQALGERKGDLKNMNPDGKGRVRLDYVIPSRGLIGFRSEFMTMTSGTGLLYSTFSHYDDVRPGEVGQRQNGVLISNGQGKAVAFALFGLQDRGKLFLGHGAEVYEGQIIGIHSRSNDLTVNCLTGKKLTNMRASGTDEAVVLVPPIRMTLEQALEFIDDDELVEVTPTSIRIRKRHLTENDRRRANRAPKDD
[11]
  total protein half-life in vivo: 5.32 ± 0.47 h
[12]
  total protein half-life in vivo: 4.79 ± 0.39 h
[1]
  total protein half-life in vivo: 4.54 ± 0.41 h
[2]
  total protein half-life in vivo: 5.61 ± 0.38 h
[3]
  total protein half-life in vivo: 4.62 ± 0.21 h
[4]
  total protein half-life in vivo: 2.899 ± 0.022 h
[5]
  total protein half-life in vivo: 5.8018 ± 0.005 h
[6]
  total protein half-life in vivo: 9.75 ± 0.82 h
[7]
  total protein half-life in vivo: 4.387 ± 0.029 h
[8]
  total protein half-life in vivo: 6.89 ± 0.16 h
[9]
  total protein half-life in vivo: 5.58 ± 0.15 h
[10]
  total protein half-life in vivo: 10.9 ± 0.83 h

## MKFRLGGFEAIKSAYMAQVQYSMWVTRKDAWYFANYDPRMKREGLHYVVIERNEKYMASFDEMVPEFIEKMDEALAEIGFVFGEQWR
[12]
  total protein half-life in vivo: 2.75 h

## MQLRKPATAILALALSAGLAQADDAAPAAGSTLDKIAKNGVIVVGHRESSVPFSYYDNQQKVVGYSQDYSNAIVEAVKKKLNKPDLQVKLIPITSQNRIPLLQNGTFDFECGSTTNNVERQKQAAFSDTIFVVGTRLLTKKGGDIKDFANLKDKAVVVTSGTTSEVLLNKLNEEQKMNMRIISAKDHGDSFRTLESGRAVAFMMDDALLAGERAKAKKPDNWEIVGKPQSQEAYGCMLRKDDPQFKKLMDDTIAQVQTSGEAEKWFDKWFKNPIPPKNLNMNFELSDEMKALFKEPNDKALN
[11]
  total protein half-life in vivo: 6.32 ± 0.97 h
[12]
  total protein half-life in vivo: 6.45 ± 1.6 h
[1]
  total protein half-life in vivo: 6.8 ± 0.39 h
[2]
  total protein half-life in vivo: 7.14 ± 0.3 h
[3]
  total protein half-life in vivo: 6.02 ± 0.43 h
[4]
  total protein half-life in vivo: 3.26 ± 0.14 h
[5]
  total protein half-life in vivo: 6.76 ± 0.34 h
[6]
  total protein half-life in vivo: 11.3 ± 0.22 h
[7]
  total protein half-life in vivo: 5.9 ± 0.54 h
[8]
  total protein half-life in vivo: 14.1 ± 0.48 h
[9]
  total protein half-life in vivo: 5.81 ± 0.41 h
[10]
  total protein half-life in vivo: 13.2 ± 0.35 h

## MKAPGLPADQQFFADLFSGLVLNPQLLGRVWFASQPASLPVGSLCIDFPRLDIVLRGEYGNLLEAKQQRLVEGEMLFIPARAANLPVNNKPVMLLSLVFAPTWLGLSFYDSRTTSLLHPARQIQLPSLQRGEGEAMLTALTHLSRSPLEQNIIQPLVLSLLHLCRSVVNMPPGNSQPRGDFLYHSICNWVQDNYAQPLTRESVAQFFNITPNHLSKLFAQHGTMRFIEYVRWVRMAKARMILQKYHLSIHEVAQRCGFPDSDYFCRVFRRQFGLTPGEYSARFQG
[11]
  total protein half-life in vivo: 5.03 h
[5]
  total protein half-life in vivo: 1.83 h

## MKLAHLGRQALMGVMAVALVAGMSVKSFADEGLLNKVKERGTLLVGLEGTYPPFSFQGDDGKLTGFEVEFAQQLAKHLGVEASLKPTKWDGMLASLDSKRIDVVINQVTISDERKKKYDFSTPYTISGIQALVKKGNEGTIKTADDLKGKKVGVGLGTNYEEWLRQNVQGVDVRTYDDDPTKYQDLRVGRIDAILVDRLAALDLVKKTNDTLAVTGEAFSRQESGVALRKGNEDLLKAVNDAIAEMQKDGTLQALSEKWFGADVTK [P0AEM9]
[11]
  total protein half-life in vivo: 6.22 ± 0.52 h
[12]
  total protein half-life in vivo: 5.74 ± 0.64 h
[1]
  total protein half-life in vivo: 6.87 ± 0.34 h
[2]
  total protein half-life in vivo: 7.33 ± 0.21 h
[3]
  total protein half-life in vivo: 6.54 ± 0.16 h
[4]
  total protein half-life in vivo: 3.47 ± 0.28 h
[5]
  total protein half-life in vivo: 6.27 ± 0.63 h
[6]
  total protein half-life in vivo: 12.5 ± 2.1 h
[7]
  total protein half-life in vivo: 5.71 ± 0.61 h
[8]
  total protein half-life in vivo: 14.1 ± 1.8 h
[9]
  total protein half-life in vivo: 5.95 ± 0.58 h
[10]
  total protein half-life in vivo: 14.49 ± 0.065 h
